Experiment [1] addresses T1, human PD-1 expressed on Jurkat cells (human, UniProt Q15116 25-288).
T1 construct: whole, on cells; also called huPD-1; Jurkat/huPD-1 clonal cell line
Kind of experiment: blocking of biotinylated human PD-L1 binding to Jurkat/huPD-1 cells, flow cytometry, streptavidin-APC MFI. The procedure:
The Jurkat/huPD-1 clonal cell line was labeled with FVS520 viability dye (BD Biosciences, 1:2000 dilution) for 15 minutes at room temperature. The labeled cells were then diluted in FACS buffer (2% FBS in PBS), added to V-bottom 96-well plates (50,000 cells per well), and stained with 0-100 nM anti-huPD1 or isotype control antibody on ice for 30 minutes. Cells were washed to remove excess antibody, then labeled with 15 ug/ml His-tag purified, monobiotinylated […] on ice for 30 minutes. Cells were washed again with FACS buffer, then labeled with 0.25 ug/ml APC-conjugated streptavidin on ice for 20 minutes. Cells were washed again with before acquisition on a BD FACSCalibur flow cytometer equipped with the Cytek AMS plate loader system. AB1HU-AB5HU results in this assay are shown in FIG. 3. and show the median fluorescence intensity (MFI) on the APC channel after gating on live cells. Error bars represent the standard deviation of duplicate samples.
On the technique in general: A flow cytometer gives signals particle by particle.

Experiment [2] concerns the target T2, human PD-1 extracellular domain (human, UniProt Q15116 25-170).
T2 construct: extracellular domain; Soluble analyte in the bio-layer interferometry assay; also called recombinant human PD-1 extracellular domain protein
Kind of experiment: bio-layer interferometry (Octet Red 96), antibody on anti-human Fc biosensor, PD-1 ECD in solution, 1:1 global fit, 30 C. How it is done:
The binding kinetics of selected anti-PD-1 antibodies AB1-AB5 and AB1HU-AB5HU was determined by bio-layer interferometry analysis on a ForteBio Octet Red 96 instrument. First, purified antibodies were produced by protein A chromatography using HEK-293 transiently-transfected antibody supernatants. This assay was performed by immobilizing the purified antibodies to anti-human Fc biosensors. PD-1 binding to and dissociation from the biosensors was then observed at various concentrations of PD-1. Specifically, eight anti-human Fc biosensors were placed into wells containing the same purified antibody for 5 minutes. Biosensors were equilibrated in kinetics buffer (Pall ForteBio) for 1 minute to establish a baseline. Association of PD-1 was observed by placing the biosensors into wells containing various concentrations of human PD-1 extracellular domain for 5 minutes. Dissociation was measured after transfer of the biosensors into kinetics buffer and monitoring the interferometry signals for 15 minutes. All steps of the assay were performed at 30° C. with shaking at 1000 RPM. The on and off rates (kon and koff) and the equilibrium binding constant KD were determined using the software provided by the manufacturer and were fit using a 1:1 binding global fit model comprising several of the concentrations tested.
(In general: In BLI a coated tip is dipped into the sample, and binding shifts an interference pattern.)

For experiment [3], the target named is T1, human PD-1 expressed on Jurkat cells. Kind of experiment: blocking of biotinylated human PD-L2 binding to Jurkat/huPD-1 cells, flow cytometry, streptavidin-APC MFI. How it is done:
The Jurkat/huPD-1 clonal cell line was labeled with FVS520 viability dye (BD Biosciences, 1:2000 dilution) for 15 minutes at room temperature. The labeled cells were then diluted in FACS buffer (2% FBS in PBS), added to V-bottom 96-well plates (50,000 cells per well), and stained with 0-100 nM anti-huPD1 or isotype control antibody on ice for 30 minutes. Cells were washed to remove excess antibody, then labeled with 15 ug/ml His-tag purified, monobiotinylated huPD-L2 on ice for 30 minutes. Cells were washed with FACS buffer, then labeled with 0.25 ug/ml APC-conjugated streptavidin on ice for 20 minutes. Cells were washed again with FACS buffer before acquisition on a FACSCalibur flow cytometer equipped with the Cytek AMS plate loader system. […] Error bars represent the standard deviation of duplicate samples.

Experiment [4] has the same target. Kind of experiment: flow cytometry on Jurkat/huPD-1 cells, anti-human Fc AF647 secondary, MFI. How it is done: The human PD-1 gene was subcloned into the pcDNA3.1 mammalian expression vector and transfected into the Jurkat human T cell line. A clonal cell population expressing high levels of huPD-1 was generated by G418 drug selection and single-cell sorting. This Jurkat/huPD-1 clonal cell line was labeled with FVS520 viability dye (BD Biosciences, 1:2000 dilution) for 15 minutes at room temperature. The labeled cells were then diluted in FACS buffer (2% FBS in PBS), added to V-bottom 96-well plates (50,000 cells per well), and stained with 0-25 nM anti-huPD1 or isotype control antibody on ice for 30 minutes. Cells were washed to remove excess primary antibody, then labeled with Alexa luor 647-conjugated goat anti-human Fc secondary antibody (Jackson Immunoresearch, 1:1600 dilution) on ice for 20 minutes. The labeled cells were then washed with FACS buffer before acquisition on a BD FACSCalibur flow cytometer equipped with the Cytek AMS plate loader system. Data points show the median fluorescence intensity (MFI) on the AF647 channel after gating on live cells. Nonlinear regression methods were used to fit curves to each data set, and error bars represent the standard deviation of duplicate samples.

Experiment [5] shares this target. Put plainly: flow cytometry on Jurkat/huPD-1 cells, biotinylated PD-L2 detected with streptavidin-APC, MFI.

T2 sequence (Q15116 25-170): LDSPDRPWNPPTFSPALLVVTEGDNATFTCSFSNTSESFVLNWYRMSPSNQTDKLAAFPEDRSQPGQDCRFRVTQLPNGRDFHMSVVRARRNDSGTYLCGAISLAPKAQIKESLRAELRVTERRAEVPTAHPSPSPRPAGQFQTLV
T1 sequence (Q15116 25-288): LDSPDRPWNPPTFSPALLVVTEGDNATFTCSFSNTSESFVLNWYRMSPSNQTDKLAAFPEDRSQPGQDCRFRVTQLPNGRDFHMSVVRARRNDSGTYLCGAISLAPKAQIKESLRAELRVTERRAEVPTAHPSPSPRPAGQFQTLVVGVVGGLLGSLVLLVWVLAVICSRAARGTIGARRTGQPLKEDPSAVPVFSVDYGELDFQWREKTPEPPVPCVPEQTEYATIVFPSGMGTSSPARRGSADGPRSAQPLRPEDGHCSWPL

B1: AB2HU (antibody, human IgG1, kappa, V domains shown)
VH: QEQLLESGGGLVQPGGSLRLSCTASGFSFSSYWMCWVRQAPGKGLEWIGCITTGSGSTYYASWAKRRFTISKDNSKNTVTLQMNSLRAEDTAVYYCTRAFDLWGQGTLVTVSS
VL: DIQMTQSPSSLSASVGDRVTITCQASQSIYSYLNWYQQKPGKAPKLLIYGASNLASGVPSRFSGSGSGTDFTLTISSLQPEDFATYYCQSSWLSGAVGNAFGGGTKVEIKR
notes: Humanized, human gamma-1 / kappa constant domains as in the full-length entries; also called humanized form of antibody AB2
The Kd is the equilibrium constant for the complex coming apart. The low end stands for tighter binding, the high end for weaker binding. For orientation: koff means the rate constant with which the complex falls apart. As a reminder, the kon is the rate constant with which the complex forms. A higher kon goes with faster complex formation. As a reminder, the EC50 (read off the curve) is the concentration at which the effect is half-maximal. As for B1, the “IC50 (read off the curve)” value in experiment [1] was roughly 2 nM. Besides, in experiment [2], binding was characterised by a dissociation constant (Kd) of 17 nM, the koff was 0.0015 s⁻¹ and the kon stood at 89000 M⁻¹ s⁻¹. Besides, the “IC50 (read off the curve)” value in experiment [3] was roughly 0.2 nM. Also, the “EC50 (read off the curve)” value in experiment [4] is roughly 0.6 nM.

B2: AB2 (antibody, human IgG1, kappa, V domains shown)
VH: QEQLVESGGGLVQPEGSLTLTCTASGFSFSSYWMCWVRQAPGKGLEWIGCITTGSGSTYYASWAKRRFTISKTSSTTVTLQMTSLTAADTATYFCTRAFDLWGPGTLVTVSS
VL: DVVMTQTPASVSAVVGGTVTIKCQASQSIYSYLNWYQQKPGQPPKLLIYGASNLASGVSSRFKGSGSGTEFTLTISDLECADAATYYCQCSWLSGAVGNAFGGGTEVVVKR
notes: Rabbit variable domains on human IgG1 / human kappa constant domains; also called AB2 chimeric
As for B2, in experiment [2], the Kd worked out at 86 nM, the koff worked out at 0.0057 s⁻¹ and the on-rate constant (kon) stood at 67000 M⁻¹ s⁻¹.

B3: AB4 (antibody, human IgG1, kappa, V domains shown)
VH: QSLEESGGRLVTPGTPLTLTCTVSGFSLSSYAMSWVRQAPGKGLEYIGYIGDTTGIAYASWANGRFTISKTSTTVDLKITSPTTGDTATYFCARGWSYLDIWGQGTLVTVSS
VL: ALVMTQTPSSVSAAVGGTVTINCQASQNIYSNLAWYQQKPGQPPSLLIYQASTLASGVSSRFSGSGYGTEFTLTISDLECADAATYYCQGGYYSAALNTFGGGTEVVVKR
notes: Rabbit variable domains on human IgG1 / human kappa constant domains; also called AB4 chimeric
As for B3, in experiment [2], binding was put at a Kd of 9.2 nM, the koff is 0.001 s⁻¹ and the kon was 110000 M⁻¹ s⁻¹.

B4: AB1HU (antibody, human IgG1, kappa, V domains shown)
VH: EVQLVESGGGLVQPGGSLRLSCAASGFDFSSGYWICWVRQAPGKGLELIACIYAGTSGSTSYASWARGRFTISETSKNTVTLQMNSLRAEDSAVYYCARNLYTYNSLWGQGTLVTVSS
VL: DIQMTQSPSTLSASVGDRVTITCQSSQSVYDNNWLAWYQQKPGKAPKLLIYTVSTLASGVPSRFSGSGSGTEFTLTISSLQPDDFATYYCQGTYYSSGWNFAFGGGTKVEIKR
notes: Humanized, human gamma-1 / kappa constant domains as in the full-length entries; also called humanized form of antibody AB1
In the case of B4, the “IC50 (read off the curve)” value in experiment [1] is roughly 4 nM. Further, in experiment [2], the Kd came to 16 nM, the koff is 0.0002 s⁻¹ and the kon was 12000 M⁻¹ s⁻¹.

B5: AB5HU (antibody, human IgG1, kappa, V domains shown)
VH: EVQLLESGGGLVQPGGSLRLSCAASGFTFSSSHWICWVRQAPGKGLEWIACIYTGSIDVFYYASWAKGRFTISRDNSKNTLYLQMNSLRAEDTAVYYCARAANTDTTYFNLWGQGTLVTVSS
VL: AYDMTQSPSSLSASVGDRVTINCQASQSINNQLSWYQQKPGKVPKLLIYGASTLASGVPSRFTGSGSGTDFTLTISSLQPEDVATYYCHVHYCSGGSCFWAFGGGTKVEIKR
notes: Humanized, human gamma-1 / kappa constant domains as in the full-length entries; also called humanized form of antibody AB5; ABSHU [sic]
As for B5, in experiment [2], the Kd was 6.6 nM, the koff was 0.0004 s⁻¹ and the kon turned out to be 61000 M⁻¹ s⁻¹.

B6: AB4HU (antibody, human IgG1, kappa, V domains shown)
VH: EVQLVESGGGLVQPGGSLRLSCTASGFSLSSYAMSWVRQAPGKGLEYIGYIGDTTGIAYASWANGRFTISKDNTKNTVDLQMNSLRAEDTAVYYCARGWSYLDIWGQGTLVTVSS
VL: ALVMTQSPSSLSASVGDRVTITCQASQNIYSNLAWYQQKPGKVPKLLIYQASTLASGVPSRFSGSGYGTDFTLTISSLQPEDVATYYCQGGYYSAALNTFGGGTKVEIKR
notes: Humanized, human gamma-1 / kappa constant domains as in the full-length entries; also called humanized form of antibody AB4
In experiment [2], B6 showed a Kd of 4.3 nM, a koff of 0.00038 s⁻¹ and a kon of 87000 M⁻¹ s⁻¹.

B7: AB1 (antibody, human IgG1, kappa, V domains shown)
VH: QSLEESGGDLVKPEGSLTLTCKASGFDFSSGYWICWVRQAPGKGLELIACIYAGTSGSTSYASWARGRFTISETSSTTVTLQMTSLTAADSATYFCARNLYTYNSLWGQGTLVTVSS
VL: QVLTQTASSVSAAVGGTVTISCQSSQSVYDNNWLAWYQQKPGQPPMLLIYTVSTLASGVSSRFKGSGSGTQFTLTISGVQCDDAATYYCQGTYYSSGWNFAFGGGTEVVVKR
notes: Rabbit variable domains on human IgG1 / human kappa constant domains; purified by protein A from HEK-293 supernatant; also called AB1 chimeric; rabbit/human chimeric anti-PD-1 antibody AB1
In experiment [2], B7 came in with a dissociation constant Kd of 4.8 nM, a koff of 0.00016 s⁻¹ and an association rate constant (kon) of 36000 M⁻¹ s⁻¹.

B8: AB3HU (antibody, human IgG1, kappa, V domains shown)
VH: QEQVKETGGGLVQPGGSLRLSCAASGFTISSYGVSWVRQAPGKGLEWVALIFPGIGFKDYASWVNGRFTLSSDNAQNTVELQMNSLRAEDTAVYYCARDLDLWGQGTLVTVSS
VL: DIQMTQSPSSLSASVGDRVTITCQSSPSVYSNYLSWYQQKPGKVPKLLIYYASTLASGVPSRFSGSGSGTDFTLTISSLQPEDVATYYCAGGYSSSTRAFGGGTKVEIKR
notes: Humanized, human gamma-1 / kappa constant domains as in the full-length entries; also called humanized form of antibody AB3
For B8, the “IC50 (read off the curve)” value in experiment [1] was roughly 1 nM. In experiment [2], this molecule gave an equilibrium dissociation constant (Kd) of 1.1 nM, a koff of 0.00014 s⁻¹ and a kon of 130000 M⁻¹ s⁻¹. In experiment [3], the “IC50 (read off the curve)” value is roughly 1 nM. Besides, the “EC50 (read off the curve)” value in experiment [4] is roughly 1 nM.

B9: AB3 (antibody, human IgG1, kappa, V domains shown)
VH: QEQVKETGGGLVQPGGSLTLSCKASGFTISSYGVSWVRQAPGKGLEWIALIFPGIGFKDYASWVNGRFTLSSDNAQNTVELQMNSLTAADTAAYFCARDLDLWGQGTLVTVSS
VL: QVLTQTPSPVSAAVGGTVSISCQSSPSVYSNYLSWFQQKPGQPPKLLIYYASTLASGVPSRFKGSGSGTQFTLTISDVQCDDAATYYCAGGYSSSTRAFGGGTEVVVKR
notes: Rabbit variable domains on human IgG1 / human kappa constant domains; also called AB3 chimeric
In experiment [2], B9 came in with a Kd of 0.9 nM, a koff of 0.00012 s⁻¹ and a kon of 130000 M⁻¹ s⁻¹.

B10: AB5 (antibody, human IgG1, kappa, V domains shown)
VH: QEQLEESGGDLVKPEGSLTLTCTASGFSFSSSHWICWVRQAPGKGLEWIACIYTGSIDVFYCASWAKGRFTISKPSSTTVTLQVPSLTAADTATYFCARAANTDTTYFNLWGPGTLVTVSS
VL: AYDMTQTPSSVSAAVGGTVTINCQASQSINNQLSWYQQKPGQPPKLLIYGASTLASGVPSRFTGSGSGTEFTLTISGVQCDDAATYYCHVHYCSGGSCFWAFGGGTEVVVKR
notes: Rabbit variable domains on human IgG1 / human kappa constant domains; also called AB5 chimeric
In the case of B10, in experiment [2], the Kd was 3.3 nM, the koff was determined as 0.00026 s⁻¹ and the kon was found to be 78000 M⁻¹ s⁻¹.

B11: recombinant human PD-L2 (ligand, UniProt Q9BQ51 20-220, looked up)
ligand: LFTVTVPKELYIIEHGSNVTLECNFDTGSHVNLGAITASLQKVENDTSPHRERATLLEEQLPLGKASFHIPQVQVRDEGQYQCIIIYGVAWDYKYLTLKVKASYRKINTHILKVPETDEVELTCQATGYPLAEVSWPNVSVPANTSHSRTPEGLYQVTSVLRLKPPPGRNFSCVFWNTHVRELTLASIDLQSQMEPRTHPT
modifications: monobiotinylated, His-tag purified
notes: recombinant soluble protein; also called huPD-L2
Consider B11, for which the binding result in experiment [5] is listed as “binds”.

The record behind these values is US20200157219A1 (SYSTIMMUNE, published 2020).
